Values joined by “and” are separate entries in the source; they are usually repeats but may differ in a detail not shown here. Identical values can stand only once.
How the values were obtained:
[1] = target: recombinant wild-type ADAMTS13 containing a V5- and a His-tag (wt-rADAMTS13) (human) (UniProt Q76LX8); assay: competition immuno-sorbent assay, fragment 10 nM pre-incubated with wt-rADAMTS13, immobilized pd-VWF
[2] = target: recombinant wild-type ADAMTS13 containing a V5- and a His-tag (wt-rADAMTS13) (human) (UniProt Q76LX8); assay: cell-based or functional assay
[3] = target: T1, purified plasma-derived von Willebrand factor (pd-VWF) (human, UniProt P04275 764-2813); assay: competitive immuno-sorbent assay, mAb508 0 to 50 µg/ml against ADAMTS13 (4 µg/ml) on coated VWF (2 µg/ml)
T1 construct: mature; Multimeric plasma protein; also called full-length VWF; globular full-length VWF

[4] = target: T1, purified plasma-derived von Willebrand …; assay: BLI (Octet-QK), equilibrium responses, mAb508 on protein A biosensors, pd-VWF in solution, single class of binding sites
Procedure: Subsequently, biosensors were incubated with various concentrations purified pd-VWF (0-0.2 mg/ml) and association of VWF was monitored real-time for a 10-min period until equilibrium was reached. Data represent mean±SD of four independent associations and depicted are the calculated responses (shift in nm) at equilibrium versus VWF concentration. The drawn line represents the best fit using a model describing the interaction of a single class of binding sites.
Biolayer interferometry-analysis: Equilibrium binding assays were performed via biolayer interferometry (BLI)-analysis using Octet-QK equipment (ForteBio, Reading, UK) essentially as described (26). […] Biosensors were then incubated for 5 min in BLI-buffer to achieve stable baseline, and subsequently incubated with various concentrations of pd-VWF in BLI-buffer for 10 min. All incubations were performed at room temperature under continuous shaking (1000 rpm). Data were analyzed using Octet Software version 4.0.

[5] = target: purified plasma-derived von Willebrand factor (pd-VWF), P04275

inhibition of ADAMTS13 binding to immobilized VWF [1] [%]	Molecule	further results
< 20	A1-Fc (from UniProt P04275 1261-1478) (Fc fusion)	
65	A2-Fc (from UniProt P04275 1480-1672) (Fc fusion)	residual proteolysis of VWF by ADAMTS13, vortex-based degradation assay, A2-Fc 1 µg/ml [2]: 96%
< 20	A3-Fc (from UniProt P04275 1681-1878) (Fc fusion)	
< 20	D4-Fc (from UniProt P04275 1947-2301) (Fc fusion)	
< 20	D′D3-HPC4 (from UniProt P04275 764-1247)	
	anti-human von Willebrand factor monoclonal antibody 508 (mAb508) (antibody, mouse IgG1, kappa, V domains shown, Murine monoclonal antibody purified from hybridoma; also called antibody mAb508) VH: DVQLQESGPDLVEPSQSLSLSCTVTGYSITSGYSWHWIRQFPGNKLEWLGYIHYSGTTTYNPSLHSRVSITRDTSKNQFFLQLNSVSTEDTATYFCGREGYHWGQGTTLTVSS VL: DVVMTQTPLSLPVSLGDQASISCRSSQSLVHSIGNTYLHWYLQKPGQSPKLLIYKVSNRFSGVPDRFSGSGSGTDFTLKISRVEAEDLGVYFCSQTTHVPLTFGGGTRLEIKR	IC50 [3]: 0.09 µg/mL; Kd [4]: 13 µg/mL and 52 nM
	recombinant wild-type ADAMTS13 containing a V5- and a His-tag (wt-rADAMTS13) (protein) AAGGILHLELLVAVGPDVFQAHQEDTERYVLTNLNIGAELLRDPSLGAQFRVHLVKMVILTEPEGAPNITANLTSSLLSVCGWSQTINPEDDTDPGHADLVLYITRFDLELPDGNRQVRGVTQLGGACSPTWSCLITEDTGFDLGVTIAHEIGHSFGLEHDGAPGSGCGPSGHVMASDGAAPRAGLAWSPCSRRQLLSLLSAGRARCVWDPPRPQPGSAGHPPDAQPGLYYSANEQCRVAFGPKAVACTFAREHLDMCQALSCHTDPLDQSSCSRLLVPLLDGTECGVEKWCSKGRCRSLVELTPIAAVHGRWSSWGPRSPCSRSCGGGVVTRRRQCNNPRPAFGGRACVGADLQAEMCNTQACEKTQLEFMSQQCARTDGQPLRSSPGGASFYHWGAAVPHSQGDALCRHMCRAIGESFIMKRGDSFLDGTRCMPSGPREDGTLSLCVSGSCRTFGCDGRMDSQQVWDRCQVCGGDNSTCSPRKGSFTAGRAREYVTFLTVTPNLTSVYIANHRPLFTHLAVRIGGRYVVAGKMSISPNTTYPSLLEDGRVEYRVALTEDRLPRLEEIRIWGPLQEDADIQVYRRYGEEYGNLTRPDITFTYFQPKPRQAWVWAAVRGPCSVSCGAGLRWVNYSCLDQARKELVETVQCQGSQQPPAWPEACVLEPCPPYWAVGDFGPCSASCGGGLRERPVRCVEAQGSLLKTLPPARCRAGAQQPAVALETCNPQPCPARWEVSEPSSCTSAGGAGLALENETCVPGADGLEAPVTEGPGSVDEKLPAPEPCVGMSCPPGWGHLDATSAGEKAPSPWGSIRTGAQAAHVWTPAAGSCSVSCGRGLMELRFLCMDSALRVPVQEELCGLASKPGSRREVCQAVPCPARWQYKLAACSVSCGRGVVRRILYCARAHGEDDGEEILLDTQCQGLPRPEPQEACSLEPCPPRWKVMSLGPCSASCGLGTARRSVACVQLDQGQDVEVDEAACAALVRPEASVPCLIADCTYRWHVGTWMECSVSCGDGIQRRRDTCLGPQAQAPVPADFCQHLPKPVTVRGCWAGPCVGQGTPSLVPHEEAAAPGRTTATPAGASLEWSQARGLLFSPAPQPRRLLPGPQENSVQSSACGRQHLEPTGTIDMRGPGQADCAVAIGRPLGEVVTLRVLESSLNCSAGDMLLLWGRLTWRKMCRKLLDMTFSSKTNTLVVRQRCGRPGGGVLLRYGSQLAPETFYRECDMQLFGPWGEIVSPSLSPATSNAGGCRLFINVAPHARIAIHALATNMGAGTEGANASYILIRDTHSLRTTAFHGQQVLYWESESSQAEMEFSEGFLKAQASLRGQYWTLQSWVPEMQDPQSWKGKEGT	proteolytic cleavage of pd-VWF (30 µg/ml) by recombinant ADAMTS13 (3 µg/ml), vortex-based degradation assay [5]: proteolytic cleavage of pd-VWF (30 µg/ml) by recombinant ADAMTS13 (3 µg/ml) increases as a function of incubation time, with maximal degradation obtained after 30 min

— patent publication US20170037148A1 (INSERM INSTITUT NATIONAL DE LA SANT ET DE LA RECHERCHE M …, published 2017)
